# In US12710427B2, “Anti-human neurotensin receptor 1 antibody and use thereof” (National Health Research Institutes, priority 2020, dated 2026):
# Changes are numbered by the printed parent chain. Names and notes keep the numbering of the source. “Also recorded” adds a separate entry of the source.
# B1: G96A: h7C3-1 variant, G96A in CDR L3 (antibody, V domains shown)
# VH: QVQLQQPGSVLVRPGASVKLSCKASGYTFTSSWIHWAKQRPGQGLEWIGQIRPNSGNTYYNEKFKVKATLTVDTSSSTAYVDLSSLTSEDSAVYYCARYHYGFDYWGQGTLVTVSS
# VL: DVLMTQTPLSLPVSLGDQASISCRSSQSIVHSNGNTYLEWYLQKPGQSPKLLIYKVSNRFSGVPDRFSGSGSGTDFTLKISRVEAEDLGVYYCFQASHLPWTFGGGTKLEIKR
# B2: h7C3-4-MMAE: h7C3-4 conjugated with MMAE via cleavable valine-citrulline linker, average 3.8-4 MMAE per antibody (conjugate)
# VH: B1 VH with S9T, T28A, D82E
# VL: B1 VL with K79T, A96G, S97A
# B3: P100A: h7C3-1 variant, P100A in CDR L3 (antibody, V domains shown)
# VH: B1 VH
# VL: B1 VL with A96G, P100A
# B4: h7C3-2: 7C3 variant harboring Y100H mutation in CDR H3 and S97A mutation in CDR L3 (antibody, V domains shown)
# VH: B1 VH
# VL: B1 VL with A96G, S97A
# B5: H98A: h7C3-1 variant, H98A in CDR L3 (antibody, V domains shown)
# VH: B1 VH
# VL: B1 VL with A96G, H98A
# B6: h7C3-5: humanized variant; heavy chain SEQ ID NO: 15, light chain SEQ ID NO: 16 (antibody, V domains shown)
# VH: QVQLVQSGAEVKKPGASVKVSCKASGYAFTSSWIHWVRQAPGQRLEWMGQIRPNSGNTYYNEKFKVRVTITRDTSASTAYMELSSLRSEDTAVYYCARYHYGFDYWGQGTLVTVSS
# VL: DIVMTQTPLSLSVTPGQPASISCRSSQSIVHSNGNTYLEWYLQKPGQSPQLLIYKVSNRFSGVPDRFSGSGSGTDFTLKISRVEAEDVGVYYCFQGAHLPWTFGGGTKVEIKR
# modifications: VH SEQUENCE; VL SEQUENCE
# B7: h7C3-5-MMAE: h7C3-5 conjugated with MMAE via cleavable valine-citrulline linker, average 3.8-4 MMAE per antibody (conjugate)
# VH: B6 VH
# VL: B6 VL
# modifications: non-natural residues
# notes: h7C3-5 conjugated with MMAE via cleavable valine-citrulline linker, average 3.8-4 MMAE per antibody
# Tests used:
# NTSR1 on A549 cells = molecular target: T1, NTSR1 on A549 cells (Homo sapiens, UniProt P30989); experiment: Flow cytometry (FACS) binding of anti-NTSR1 antibodies on A549 cells; conditions: for binding affinity to cell surface NTSR1 compared with h7C3-1: FACS, h7C3-1 variants
# T1 construct: endogenous in cells; host or cells: A549 (NSCLC)
# T1 sequence (P30989 whole entry): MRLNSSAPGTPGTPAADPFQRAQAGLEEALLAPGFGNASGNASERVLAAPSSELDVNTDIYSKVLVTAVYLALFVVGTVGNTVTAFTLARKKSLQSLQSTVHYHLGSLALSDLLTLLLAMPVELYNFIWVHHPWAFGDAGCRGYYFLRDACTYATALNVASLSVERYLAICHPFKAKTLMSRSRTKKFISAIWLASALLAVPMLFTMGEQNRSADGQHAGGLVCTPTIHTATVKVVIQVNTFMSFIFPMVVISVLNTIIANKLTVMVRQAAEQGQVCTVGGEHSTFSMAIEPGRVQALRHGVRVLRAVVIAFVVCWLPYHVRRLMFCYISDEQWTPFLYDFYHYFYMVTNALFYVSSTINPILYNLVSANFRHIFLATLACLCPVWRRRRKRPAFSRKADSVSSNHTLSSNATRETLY
# Description: A total of 1×10^6 cells were reacted with an anti-NTSR1 antibody in 100 μL of FACS buffer (PBS containing 0.5% BSA) for 60 minutes at 4° C. and washed two times to remove excess antibody. Secondary FITC (BD Pharmingen™) conjugated mouse anti-human IgG antibodies were incubated for an additional 60 minutes on ice. Cells were washed again and followed by an additional incubation with 1 ml PBS containing 0.5 mg/mL propidium iodide at 4° C. for 10 minutes. Data were collected on 10,000 living cells by FACS (Bio-Red S3e cell sorter). Fluorescence intensity from channel FL-1 was calculated with Flow Jo flow […] cytometry analysis software.
# [1] = test system: cyclic ECL2 peptide of NTSR1; experiment: NTSR1-binding affinity ELISA (alanine scanning variants); parameters: species or system human; conditions: alanine scanning of CDR L3 of h7C3-1
# Sequence of cyclic ECL2 peptide of NTSR1 (P30989 206-234 limits assumed): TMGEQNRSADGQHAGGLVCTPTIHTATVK
# Description: The NTSR1-binding capacity of different antibodies were measured by ELISA. Briefly, NeutrAvidin 96-well plates (Pierce Cat:15128) were coated with cyL2-Biotin peptides at a final concentration of 5 μg/ml at […]. On the following day, the coating solution was removed, and the plates were blocked with 5% (v/v) non-fat dry milk in phosphate buffer saline (PBS) for 1 hour. After washing with PBST, gradient concentrations of anti-NTSR1 antibodies were added in triplicate. After 1 hour of incubation, the plate was washed three times with PBST, followed by the addition of horseradish peroxidase (HRP)-conjugated goat anti-human IgG Fc antibody (100 μL) into each well for an additional hour at RT. Finally, 100 μL of tetramethylbenzidine (TMB) substrate was added into each well to produce color for visualization. After 2 minutes of incubation, 100 μL of 2M H2SO4 was used to stop the reaction. The absorbance of each well was read at 450 nm with a plate reader. Flow cytometry
# [2] = test system: H1299 lung tumor xenograft; experiment: H1299 lung tumor xenograft model; assay type: in vivo, nude mice
# Source text: (§1) Immuodeficient male NU/NU nude mice (for H1299 and PC-3 xenograft study) and male Fox Chase SCID® mice (for HA22T-Luc xenograft study) of 7-week-old purchased from BioLASCO were housed in sterilized cages equipped with an air filter and sterile bedding materials at the Laboratory Animal Center of the National Health Research Institutes (NHRI), which is an AAALAC International accredited facility. All mice were fed with sterilized water and chow ad libitum under 12-hour light/12-hour dark cycle throughout the study. On the day of tumor cell inoculation, the number of viable cells was counted by using a hemocytometer with trypan blue staining under a light microscope. Cells were suspended in phenol red-free medium [RPMI1640 (H1299) or DMEM (HA22T-Luc)] or PBS (PC-3) and Matrigel™ (356237, Matrigel® Matrix, Corning, MA, United States) in 1:1 ratio. H1299 (1×10^6 cells), HA22T-Luc (5×10^6 cells) and PC-3 (1×10^6 cells) were implanted subcutaneously into the left flank of either nude or SCID mice using a 1 mL syringe (needle 24G×1 inch). Tumor dimensions were measured with a digital caliper, and the tumor volume in mm^3 was calculated by the formula: Volume=(length×width^∧2)/2. Tumor-bearing mice were grouped (n=5-8 per group) and administered when the average tumor volume was approximately at 200 mm^3. In the 3 individual xenograft studies, human IgG (HU-GF-ED, Lot#120916DG, Molecular Innovations, MI, USA), h7C3-4, h7C3-3-MMAE and h7C3-4-MMAE were diluted in 1× Dulbecco's Phosphate Buffered Saline (02-023-5A, Biological Industries, CT, USA) freshly before dosing at concentration of 2.5 mg/ml. Cisplatin (KEMOPLAT, 1 mg/mL, 87200009AA, Fresenius Kabi, Bad Homburg, Germany) was purchased. In the H1299 xenograft study, tumor-bearing mice were divided into 5 groups (6 mice per group): Human IgG −10 mg/Kg group (negative control), Cisplatin—7 mg/Kg group (positive control), h7C3-3-MMAE —10 mg/Kg group, h7C3-4 −10 mg/Kg group and h7C3-4-MMAE −10 mg/Kg group. The mice were intravenously injected with 4 mL/Kg of dose volume by tail vein twice per week for 3 weeks, except for the Cisplatin group, which was once per week for 3 weeks. In the HA22T-Luc xenograft study, tumor-bearing mice were divided into 3 groups (8 mice per group): Human IgG −10 mg/Kg group (negative control), h7C3-3-MMAE −10 mg/Kg group and h7C3-4-MMAE (ADC) −10 mg/Kg group. The mice were intravenously injected with 4 mL/Kg of dose volume by tail vein twice per week for 2 weeks. In the PC-3 xenograft study, tumor-bearing mice were divided into 2 groups: no treatment group (5 mice) and h7C3-4-MMAE (ADC) −10 mg/Kg (8 mice). The mice in h7C3-4-MMAE −10 mg/Kg group were intravenously injected with 4 mL/Kg of dose volume by tail vein twice per week for 3 weeks. Each treatment was based on the body weight. Body weight and tumor size were measured twice weekly.
# Nude mice were subcutaneously inoculated with NTSR1-expressing cells, H1299 (1×10^6 cells per mouse). When the tumors reached a volume of 200 mm^3, the tumor-bearing mice were grouped (n=6) and administered intravenously with human IgG (negative control), h7C3-3-MMAE, h7C3-4 and h7C3-4-MMAE, respectively, at 10 mg/Kg twice weekly for six doses. The Cisplatin (positive control) was administered intravenously at 7 mg/Kg weekly for three doses.
# A549 = experiment: In vitro cell cytotoxicity assay (CellTiter-Glo); assay type: cell-based
# Description: (§2) The number of living cells were determined using the CellTiter-Glo® Luminescent Cell Viability Assay (Promega G7571). Cells were plated in 96-well opaque Costar plates (Cat number 136101). In brief, 500-2500 cells in 90 μL media were added to each well in quadruplicate and allowed to adhere for 16 hours. Anti-NTSR1 (dose range: 0-500 nM), anti-NTSR1-MMAE (dose range: 0-500 nM) or Paclitaxel (dose range: 0-100 nM) were added in […] 72-120 hours, medium was removed, and 200 μL of CellTiter-Glo® viability reagent contain culture medium (1:1) was added to each well and placed on an orbital shaker in the dark for 2 minutes. The plate was allowed to sit at RT for 10 minutes before being read on a GloMax® Explorer Multimode Microplate Reader (GM3500).
# PC-3 = experiment: In vitro cell cytotoxicity assay (CellTiter-Glo); assay type: cell-based
# Description: as §2
# [3] = test system: PC3 prostate tumor xenograft; experiment: PC3 prostate tumor xenograft model; assay type: in vivo, nude mice
# Source text: as §1, with “The mice were intravenously injected with 4 mL/Kg of dose volume by tail vein twice per week for 3 weeks, except for the Cisplatin group, which was once per week for 3 weeks. In the HA22T-Luc xenograft study, tumor-bearing mice were divided into 3 groups (8 mice per group): Human IgG −10 mg/Kg group (negative control), h7C3-3-MMAE −10 mg/Kg group and h7C3-4-MMAE (ADC) −10 mg/Kg group. The mice were intravenously injected with 4 mL/Kg of dose volume by tail vein twice per week for 2 weeks. In the PC-3 xenograft study, tumor-bearing mice were divided into 2 groups: no treatment group (5 mice) and h7C3-4-MMAE (ADC) −10 mg/Kg (8 mice). The mice in h7C3-4-MMAE −10 mg/Kg group were intravenously injected with 4 mL/Kg of dose volume by tail vein twice per week for 3 weeks. Each treatment was based on the body weight.” left out, “weekly. […]” for “weekly.”
# [4] = test system: HA22T-Luc liver tumor xenografts; experiment: HA22T-Luc liver tumor xenograft model; assay type: in vivo, SCID mice
# Source text: as §1
# To compare the anti-tumor efficacies of h7C3-3-MMAE and h7C3-4 MMAE, an experiment was performed with 5×10^6 HA22T-luc liver cancer cells inoculated subcutaneously to SCID mice. Tumor-bearing mice were divided into 3 groups (n=8). When the tumors reached a volume of 200 mm^3, 10 mg/Kg of human IgG, h7C3-3-MMAE and h7C3-4 MMAE were administered intravenously, respectively, twice weekly for four doses.
# [5] = 10 mg/kg i.v. twice weekly for six doses
# [6] = 10 mg/Kg i.v. twice weekly for four doses
Molecule,binding affinity to cell surface NTSR1 compared with h7C3-1 (NTSR1 on A549 cells),effect on h7C3-1 affinity for peptide (in words) [1],IC50 (A549) [nM],IC50 (PC-3) [nM],other results
B1,significantly diminished,no effect,–,–,–
B2,–,–,33.5 ± 3.32,55.4 ± 5.17,"tumor growth (tumor volume) until/on day 35 [2, 5]: Prolonged regression of tumor; tumor growth (tumor volume) on day 18 ([2]; 10 mg/kg i.v. twice weekly for six doses, vs human IgG 10 mg/kg and Cisplatin 7 mg/kg): inhibited the tumor growth more potently; body weight ([2]; 10 mg/kg, H1299 xenograft mice): did not show body weight loss; antitumor efficacy [3, 5]: highly efficacious; tumor volume until day 60 [3, 5]: prolonged regression of tumor; body weight / general physiological conditions ([3]; 10 mg/kg, PC3 xenograft mice): did not induce any abnormalities; also recorded: did not cause body weight loss; tumor volume on day 15 [4, 6]: tumor regression; tumor volume until 36 days [4, 6]: prolonged regression of tumor; body weight ([4]; 10 mg/kg, HA22T-Luc xenograft mice): did not show body weight loss"
B3,significantly diminished,no effect,–,–,–
B4,higher affinity,no effect,–,–,"FACS binding (%, 1 μg/ml) (NTSR1 on A549 cells; A549 cells, antibody 1 μg/ml): 86.0%; FACS binding (%, 10 μg/ml) (NTSR1 on A549 cells; A549 cells, antibody 10 μg/ml): 99.5%; EC50 (NTSR1 on A549 cells; relative mean fluorescence intensity (MFI) on A549 cells): 1.5 ± 0.5 µg/mL"
B5,slightly affects,no effect,–,–,–
B6,–,–,> 500,> 500,–
B7,–,–,33.1 ± 1.72,56.5 ± 7.1,–
